{
  "source": "patent US7960364",
  "biological_target": "HIV-1 envelope glycoprotein gp120 (UniProt P04578)",
  "data": [
    {"substance": "trypsin", "values": [
      {"measurement": "saturability of trypsin-catalyzed gp120 cleavage with gp120 concentration", "result": "nonsaturable at concentrations up to 1 µM"}
    ]}
  ]
}
